US20240287172A1 (SCIRHOM, published 2024)

Assays:
[1] = biological target: T1, hiR2-FL-P533-T7 (deletion of P533) (human, UniProt Q6PJF5 1-856); test: FACS on MEF-DKO cells
T1 construct: single residue deletion, not a substitution; on MEF-DKO cells
T1 sequence: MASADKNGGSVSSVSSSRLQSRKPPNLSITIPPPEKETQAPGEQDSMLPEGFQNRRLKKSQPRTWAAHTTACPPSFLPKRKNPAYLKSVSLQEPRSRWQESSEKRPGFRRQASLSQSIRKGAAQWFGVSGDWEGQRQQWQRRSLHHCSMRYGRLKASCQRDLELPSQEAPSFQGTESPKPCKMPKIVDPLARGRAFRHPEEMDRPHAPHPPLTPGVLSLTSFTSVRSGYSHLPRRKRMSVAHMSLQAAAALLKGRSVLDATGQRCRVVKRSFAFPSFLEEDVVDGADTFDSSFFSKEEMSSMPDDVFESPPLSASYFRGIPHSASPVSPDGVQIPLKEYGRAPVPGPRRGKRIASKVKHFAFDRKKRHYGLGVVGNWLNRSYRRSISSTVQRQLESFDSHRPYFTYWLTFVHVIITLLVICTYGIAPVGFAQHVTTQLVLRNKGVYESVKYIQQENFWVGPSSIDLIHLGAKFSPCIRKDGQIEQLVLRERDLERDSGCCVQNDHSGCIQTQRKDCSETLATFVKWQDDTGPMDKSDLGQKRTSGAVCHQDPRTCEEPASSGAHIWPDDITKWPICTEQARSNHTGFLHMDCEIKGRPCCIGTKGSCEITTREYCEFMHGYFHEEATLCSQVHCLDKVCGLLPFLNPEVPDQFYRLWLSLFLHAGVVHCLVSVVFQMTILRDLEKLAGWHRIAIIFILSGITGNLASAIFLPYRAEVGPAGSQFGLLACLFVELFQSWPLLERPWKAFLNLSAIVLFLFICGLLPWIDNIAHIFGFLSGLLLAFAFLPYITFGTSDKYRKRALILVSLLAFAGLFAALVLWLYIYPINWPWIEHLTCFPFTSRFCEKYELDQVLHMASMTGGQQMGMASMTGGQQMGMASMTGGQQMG

[2] = biological target: T2, dog iRhom2 full length wild type, T7-tagged (dog, UniProt Q00M95 1-827); test: FACS, MEF-DKO cells; via representative antibody 16
T2 construct: whole, on cells; on MEF-DKO cells; also called Dog-iR2-FL-WT-T7
T2 sequence: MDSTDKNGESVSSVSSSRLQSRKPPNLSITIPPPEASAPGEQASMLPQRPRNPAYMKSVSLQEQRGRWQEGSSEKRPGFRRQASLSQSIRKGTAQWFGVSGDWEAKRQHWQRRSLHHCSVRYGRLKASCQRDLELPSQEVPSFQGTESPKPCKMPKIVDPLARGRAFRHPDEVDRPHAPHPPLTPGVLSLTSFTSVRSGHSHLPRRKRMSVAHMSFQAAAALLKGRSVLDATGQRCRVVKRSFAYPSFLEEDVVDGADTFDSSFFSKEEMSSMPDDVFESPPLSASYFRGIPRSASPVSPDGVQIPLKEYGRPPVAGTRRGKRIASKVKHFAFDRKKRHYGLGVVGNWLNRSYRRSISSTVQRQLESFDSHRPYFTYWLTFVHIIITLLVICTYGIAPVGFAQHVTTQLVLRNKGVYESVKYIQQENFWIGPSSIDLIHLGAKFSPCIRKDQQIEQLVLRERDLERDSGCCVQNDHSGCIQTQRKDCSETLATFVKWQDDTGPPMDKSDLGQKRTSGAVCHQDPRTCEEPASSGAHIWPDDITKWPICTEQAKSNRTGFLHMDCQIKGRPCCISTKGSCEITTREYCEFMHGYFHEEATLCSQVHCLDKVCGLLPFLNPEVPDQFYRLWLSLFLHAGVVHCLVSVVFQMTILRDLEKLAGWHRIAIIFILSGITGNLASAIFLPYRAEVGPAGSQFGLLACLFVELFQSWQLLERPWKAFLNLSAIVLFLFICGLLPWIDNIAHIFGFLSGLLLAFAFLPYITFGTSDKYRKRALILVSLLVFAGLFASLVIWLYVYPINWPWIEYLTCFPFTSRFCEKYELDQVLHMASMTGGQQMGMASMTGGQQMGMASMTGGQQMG
Procedure: In brief, immortalized MEF-DKO-EV control cells, MEF-DKO-rhesus-iR2-FL-WT-T7 cells, MEF-DKO-cyno-iR2-FL-WT-T7 cells, MEF-DKO-dog-iR2-FL-WT-T7 cells and MEF-DKO-rabbit-iR2-FL-WT-T7 cells, as well as their respective iRhom1 counterparts, were harvested with 10 mM EDTA in PBS, washed and resuspended in FACS buffer (PBS, 3% FBS, 0.05% sodium azide), and seeded in Nunc U-bottom 96-well plates (Thermo Fisher Scientific, USA) at approximately 3×10⁵ cells per well. To pellet cells and remove supernatants, the plates were centrifuged at 1,500 rpm and 4° C. for 3 minutes. For primary staining, cells were resuspended in 100 μl per well of either FACS buffer alone (controls), mouse monoclonal anti-T7 IgG (Merck Millipore, USA) at 3 μg/ml FACS buffer or the antibodies of the invention also at 3 μg/ml FACS buffer and incubated on ice for 1 hour.
Afterwards, plates were centrifuged at 1,500 rpm and 4° C. for 3 minutes and washed twice with 200 μl per well of FACS buffer. For secondary staining, cells were spun down and resuspended in 100 μl per well of PE-conjugated goat anti-mouse IgG F(ab′)2 detection fragment (Dianova, Germany) diluted 1:100 in FACS buffer. Protected from light, the cell suspensions were incubated on ice for 1 hour. Plates were then centrifuged at 1,500 rpm and 4° C. for 3 minutes and washed three times with 200 μl per well of FACS buffer. Finally, cells were resuspended in 150 μl per well of FACS buffer and analyzed using a BD Accuri™ C6 Plus flow cytometer (Becton Dickinson, Germany).

| Binder | binding result [1] | binding result [2] |
| --- | --- | --- |
| antibody 16 (antibody, V domains shown, mouse IgG, kappa light chain; also called clone #16; purified antibody 16) VH: QVTLKESGPGILQPSQTLSLTCSFSGFSLSTFALGVGWIRQPSGRGLEWLAHIWWDDDKYYNPALKSRLTISKDTSKNHVFLKIANVDTADTATYYCARITTYYYGMDYWGQGTSVTVSS VL: DIVLSQSPATLSVTPGDSVSLFCRASQSIGNHLHWYQQESHASPRLLIKYASQSISGIPSRFSGSGSGTDFTLSINSVETEDFGMYFCQQSYNWPLTFGAGTKLELK | no binding (tested: 3 µg/ml) | – |
| antibody 48 (antibody, V domains shown, mouse IgG, kappa light chain; also called clone #48; purified antibody 48) VH: QVQLQQSGTELVRPGTSVKVSCKASGYAFTNYLIEWVKQRPGQGLEWIGVINPGSGFTKYNEKFKGKATLTADKSSSTVYMHLSSLTSEDSAVYFCARGLYRAMDYWGQGTSVTVSS VL: DIQMTQSPASQSASLGESVTITCLASQTIATWLAWYQQKPGKSPQLLIYGATTLADGVPSRFSGGGSGTKFSFKISSLQAEDFVSYYCQQLYSTPYTFGGGTKLEIK | – | binds |
| antibody 47 (antibody, V domains shown, mouse IgG, kappa light chain; also called clone #47) VH: QVQLQQSGAELVRPGTSVKVSCKASGYAFTNYLIEWVKQRPGQGLEWIGVINPGSGFTNYNEKFKGKAILNADKSSSTAYMQLISLTSEDSAVYFCARDLKRAMDHWGQGTSVTVSS VL: DIQMTQSPASQSASLGESVTITCLASQTIGTWLAWYQQKPGKSPQLLIHAATSLADGVPSRFSGSGSGTKFSFKISSLQAEDFVSYYCQQIYSSPYTFGGGTKLEIK | – | binds |
| antibody 50 (antibody, V domains shown, mouse IgG, kappa light chain; also called clone #50; purified antibody 50) VH: QVQLQQSGAELVRPGASVKVSCKASGYAFSNYLIEWVKQRPGQGLEWIGVINPGSGFTKYNEKFKGKATLTADKSSSTAYMQLSSLTSEDSAVYFCARGLYRAMDYWGQGTSVTVSS VL: DIQMTQSPASQSASLGESVTITCLASQTIGTWLAWYQQKPGKSPQLLIYAAASLADGVPSRFSGGGSGTKFSFKISSLQAEDFVNYYCQQIYSTPYTFGGGTKLEIK | – | binds |
| antibody 46 (antibody, V domains shown, mouse IgG, kappa light chain; also called clone #46) VH: QVTLKESGPGILQPSQTLSLTCSFSGFSLSTFGMGVGWIRQPSGKGLEWLAHIWWDDDNYYNQALKSRLTISKDNTKNQVFLNIANVDTADTATYYCARIRSYDYDVRYAMDYWGQGTSVTVSS VL: DIKMTQSPSSMYASLRERVTITCKASQDINSYLSWFQQKPGKSPKTLIYRANRLVDGVPSRFSGSGSGQDYSLTISSLEYEDLGIYYCQQYYEFPLTFGAGTRLELK | – | binds |
| antibody 51 (antibody, V domains shown, mouse IgG, kappa light chain; also called clone #51) VH: QVQLQQSGAELVKPGASVKISCKASGYTFSNYWMNWVKQRPGKGLEWIGQIYPGDGDTKYNGKFKNKATLTADKSSSTAYMQFSSLTSEDSAVYFCARGDLVFVYWGLGTLVTVSA VL: DVQITQSPSYLAVSPGETITINCRASKNIRKYLAWYQEKPGKTNKLLIYSGSTSQSGVPSRFSGSGSGTDFTLTISSLEPEDFAMYYCQQHNEYPYTFGGGTKLEIK | – | binds |
| antibody 5 (antibody, V domains shown, mouse IgG, kappa light chain; also called clone #5; purified antibody 5) VH: QVTLKESGPGILQPSQTLSLTCSFSGFSLSTFGMGVGWIRQPSGKGLEWLAHIWWDDEKYYNSALKSRLTISKATSKNQAFLKIANVDTADTATYYCARISNYGSNYWYFNVWGTGTTVTVSS VL: QVVLTQSPALMSASPGEKVTMTCSAGSSVSCMYWYQQKPGSSPRVLIYDTSNLASGVPARFTGSGSGTSYSLTISRMEAEDAASYYCQQWNSYPLTFGAGTKLELK | no binding (tested: 3 µg/ml) | binds |
| antibody 42 (antibody, V domains shown, mouse IgG, kappa light chain; also called clone #42; purified antibody 42) VH: QVTLKESGPGILQPSQTLSLTCSLSGFSLSTFGRGVGWIRQPSGKGLEWLAHIWWDDEKYYNPALKSRLTISKDTSKNQVFLRIANVDTADTATYYCARIQNYGSNYWYFDVWGTGTTVTVSS VL: LIVLTQSPAIMSASPGEKVTMTCGATSRISYMFWYQQKPGSSPRVLIYDTSNLASGVPVRFSGSGSGTSYSLTISRVEAEDVATYYCQQWNSYPLTFGAGTKLELK | no binding (tested: 3 µg/ml) | binds |
| antibody 54 (antibody, V domains shown, mouse IgG, kappa light chain; also called clone #54) VH: QVTLKESGPGILQPSQTLSLTCSFSGFSLSTFGLGVGWIRQPSGKGLECLAHIWWDDDKYSNPALKSRLTISKDTSKNQVFLKIANVDSADTATYFCARILNYGSNYWYFDVWGTGTTVTVSS VL: QIVLTQSPALMSASPGEKVTMTCSASSSISYMYWYQQKPGSSPRLLIYDTSNLASGVPVRFSGSGSGTSFSLTVSRMEAEDAATYYCQQWNSYPLTFGAGTKLELK | – | binds |
| antibody 57 (antibody, V domains shown, mouse IgG, kappa light chain; also called clone #57) VH: QVTLKESGPGILQPSQTLSLTCSFSGFSLSTFGMGVGWIRQPSGKGLEWLAHIWWDDDKYYNPALKSRLTISKDTSKNQIFLKIANVDTADSATFYCARIENYGSNYWYFDVWGTGTTVTVSS VL: QIVLTQSPAIMSASPGEKVTMTCSASSSVSYMYWYQQKPGSSPRVLIYDTSNLASGVPVRFSGSGSGTSYSLTVSRMEAEDAATYYCQQWNSYPLTFGAGTKLELK | – | binds |
| antibody 49 (antibody, V domains shown, mouse IgG, kappa light chain; also called clone #49) VH: QVTLKESGPGILQPSQTLSLTCSFSGFSLSTFGMGVGWIRQPSGKGLEWLAHIWWDDDKYYNPALQSRLTVSKDTAKNQVFLKIANVDTADTAIYYCARVGNYGSNYWYFAVWGTGTTVTVSS VL: QIVLTQSPAIMSASPGEKVTMTCSASSSVSYMYWYQQKPGSSPRLLIYDTSNLASGVPVRFSGSGSGTSYSLTISRMEAEDAATYYCQQWNSYPLTFGAGTKLELK | – | binds |
| antibody 56 (antibody, V domains shown, mouse IgG, kappa light chain; also called clone #56) VH: QVTLKESGPGILQPSQTLSLTCSFSGFSLSTFGMGVGWIRQPSGKGLEWLTNIWWDDDKYYNSVLKSRLTISKDTSKNQVFLKIANVDTADTATYYCARIAAYGSNYWYFDVWGTGTTVTVSS VL: QIVLTQSPAIMSASPGEKVTMTCSASSSVSYMYWYQQKPGSSPRVLIYDTSNLSSGVPVRFSGSGSGTSYSLTISRMEAEDAATYYCQQWSSYPLTFGAGTKLELK | – | binds |
| antibody 22 (antibody, V domains shown, mouse IgG, kappa light chain; also called clone #22; purified antibody 22) VH: QVTLKESGPGILQPSQTLSLTCSFSGFSLSTFGMGVGWIRQPSGKGLEWLAHIWWDDEKYYNSALKSRLTISKATSKNQVFLKIANVDTADTATYYCARISNYGSNYWYFNVWGTGTTVTVSS VL: QVVLTQSPALMSASPGEKVTMTCSAGSSVSYMYWYQQKPGSSPRVLIYDTSNLASGVPARFTGSGSGTSYSLTISRMEAEDAATYYCQQWNSYPLTFGAGTKLELK | no binding (tested: 3 µg/ml) | binds |
